Test: protease stability score; higher = more stable; yeast display proteolysis, trypsin and chymotrypsin;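 note: relative to predicted unfolded state with 0 unfolded-like and 1 meaning tenfold more protease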

| Sequence | protease stability score |
| --- | --- |
| SEKHEEVKRALELEVQLLRTGDEDIYANLADPNTRLLFDGVDIIGMEKVMEWLRFIHEHIRIRDLKIRRVRLIDGQVDVDSQIEGHVGDKHINIKHEIVVEKINGRWYIRSRHWH | 1.52 |
| DEHLEYVREIARLFWQLLSTGDEENLRKLFDPNARLDVNGQEFHGREEIIIFLRHWRMRSKDIRIHHVNVQGEKMEVDIHTDLEFEVGDFKYEEHTRVEIIVEKINGRWLVRHVKIR | 0.437 |
| SEEERIMEEVSNLILDILYTGDWRRFLKLADPRTRSEINGVELIGMENHFKMWEHWRIKHIDMHSHESQGDKAIAHTRHRGEINGRERDVDTNLFVLVVNGRLKQIRLEFV | 1.25 |
| DHIEEELIRWLELLRNALETGDEELVVKLVDPRYRLIIGDKHHHGMEEWSKILKEESERVKNARIELHLRHLRLFNGQADMEVENVVRYNGVTIIIDVRIHLLKVNGRWKEREVREG | 1.33 |
| TEEHRATHDYVELLIRAARTGDEDIWKTMFDPDDKLVINGRTHHGREEAVRLLREIRIQIDHVDLREVRVYDGVVEIHTHTELRIIQGDKHLEIRTDQEVHILKIDGRWSNSIVIIH | 1.06 |
| TEDDHKFEEAMRLWEHIEKTGDPHTASKMLDPNVRIYINGRELHGRHLFEHLEEHWLLELRLKHVQIQHIEVIDGRLEFDVEVNGQQGDKDIRMRVNVTVHKIDGRWFLKMVSFE | 0.705 |
| DEKEEILRQIMELMLRLLLTGDEDRLTELIDPNVRVVFEGRTYHGMDEVTELWKEIRIDSFRFRDVKNVGDKARLHGEQKVRVGNYSHEHKSEYQLFVVNGRAKSLEIRWH | 1.31 |
| DEDTHVMEHALREWSHIFHTGDEDRLLELMDPRTRATVNGVDLHGMEEITRLETEIIRSHGMKFRTFLLEDFKTIDGKIHVHSRLNVDINGKERELRVRIIAKKVNGRWVVTKVEVG | 0.952 |
| DEDEKDAERAVKHWIKLMHTGDEELLIRLFDPHTRVEIDGVEFHGREKVTELFREFTKRVKNVRIILRRYRIVGEWIEVDTEVRVGDKSSEVHLVILKVDGKWIMHVEHYK | 1.85 |
| SEEKKFSMEMLELLLHLLLTGDWDKLNKEFDPDYRLIIGDKETIGRESVRERLRLEIERIDHIHDVKIEDWKVQGDKAHIRLRVDGNIDGKRKEFESELIVIIVDGRMKSVRIIIK | 1.97 |
| DEDKEMIRHAVEILLKTLYTGDWETLERLLDPNARINVDGVDIHGRDVVKHWLDRADHVSIHDSHVERFRFVNGRLTIHIKEHSRFEIGDKTMRVELKRNLFILKIDGRWILESERIV | 1.01 |
| SEEEDHIREFLLLIIHAFRTGDEEFFERNVDPNVRLHSDVDGRELQLHGRDEFSRYFHHFRHRAGIDHIEDKRVTSQGDKIIVHGWSIVGDKIHHLELHFIVIDGQVHTVEIRPK | 1.28 |
| DEHENVMHDAIENIEHMIHTGDEHISERLLDPNVKLDVNGRRFHGWEEFNKWLHHMGADVVDHKRLESQGDKVHTDGRVFFNGREYDSEINSLKVNGRWLITEVRIH | 0.337 |
| DHKDELNEHIMKVWIHFLETGDEEFLYDLMDPHARLDFNGREIHGREILYEFWKRWNKRFPNRIDFLDSVRVIGDKVEMDTTLRIDGVRHETEIRIHVYDGKLKHIEYHIR | 1.4 |
| DKDERMRNEAFKITEHLHHTGDWHTRSRLADPEVQLIIGDKEYHGRETASEVLHKYLKRLGVDHLELKHFEVKMFDGQLHIHLHIELHINGVIYEVHIHIVMEKINGRWVIKHERIEFR | 1.01 |
| SELEEWLFHFVKRFIRAELTGDEEEMLHLLDPNARMIIGDKHIHGRENIMELVRHFWHEIRIDHIEIKHVDFQGDKVIIHGQSDGQINGQRTTVDVRIQLIIINGRLKLLEFDNR | 1.71 |
| SEDEKNSRKFLEDWIRALETGDEHRLEELLDPHVLVIVDGVHYWGMEIFLKERRRHGFKLKDVRLEHMTIQGDKVILHVQIEVHINGRDHHLESYIIIEKVNGRWHVSKLELR | 2.71 |
| DEWERLTEVMIRIFEEIVHTGDERVWEEMADPHVKVHIDGVHFHGREDLLYLLRKMGANVFDLKRSDIQGEKVYLDIQTEFNGQKRDSRFLIVKFNGRWLLESISIH | 1.47 |
| SEEDEEFKHHIKLLIESLETGDWRTDRRLADPHVRLEVGDKTIHGMDEYLEFMSEIRFTRLEISSVEIQGDKLHANGETDGIVNGKRVKVESTFIIIKVDGRWIIEHERMH | -0.372 |
| DDEERILHRIKELFEAAMHTGDWRLEFQQADPHTRVEIGDKEIHGMENIFDMLEDFWRELGIDQIDVEVRDEDSHIQGDKIILHVDITLRYNGVQERFKSTIILQKIDGRWHKKTEHRG | 1.16 |
| SEEKDDANRHLEIFFHYFITGDESSMLREADPHVQVEQGDKHIHGMEEWVTEWSKREKELGAKHIKLEDKRIHLINGRVHLILDLIIEVGDKRRRMILIVTIDKINGRWVMSQMKLEVR | 1.2 |
| DEEEEMRRRQTTLFLEAWITGDWDLIQRLLDPHTRVDVNGVEIHGMEEFARWFREKKEKVKNLRSHLTDIELQGEKVILYGIDTVNGKTHKVRVKVDIVDGVIKEVRFDLR | 1.4 |
| DDETEYAREASEMWVKLLITGDEEIREEYIDPHAKMDQGEYEYHGREQVSRFSKKLIDTMGVKHFDIKSIEIQGDKVILFMHEHFENRRVDLIFYSRKFDGRWHYRRMEVIHR | 0.543 |
| DEFHHLLELFLKLLAEQSRTGDEDSFERLFDPNVRVDINGRELHGWEAYQETRDRLGIERFDLRRIHSHTVNVVNGQVHMDMRTDGVIGDKRIDRTIHIRTTKINGRWFFTHLEWE | 0.578 |
| DEEEETLREMLRMSKEALETGDETELHELFDPNVRVVVDGVTLHGWEAWSQFLREIRLSIREVRIKRVDRVDGKIIIDGKFHRIIIQGDKTRENTIDAEVLIRKVDGKWVYEHDSYL | 0.823 |

| Sequence | protease stability score |
| --- | --- |
| SESEHLLHTAHELVLRLQETGDWDEIIELADPNVRMEIGDKEIHGREEFERWSREMRFEHVEIHDMRVQGNKADLDGRMRGHFNGRTIDTRVKIIFHKVDGRWLITSYHVK | 1.18 |
| DEREEMSRHMINLWNRHLETGDEDRISKLADPHVKVTNEDEEHVGRESAERFVRLMGFDHVHLHDIHIQGNKVISTVEIRIDGQTYQSDVVALKVDGKWKVKNVHIH | 0.711 |
| SEDDEEKEEYLRKELEAHRTGDWRLFRELIDPHTKIHINGVLFVGWKDATRFFKEIRVKDHKVHRVRNIDGRIEMDGELNIDIDGREDIMIVHIRAKKVNGRWIVDSVEFR | 1.19 |
| DEDRKYVEELMRKIWEAMHTGDEKFFNNLADPHYRLRIGDKNFIGRDEFHKFLRHIRMTVEDFQERDSDEIDGVIIIIGETTYIFIVNGQEKHHVVEVEIIIIKIDGRWLLHSVNIH | 1.27 |
| DEQQEDAEHATELLLRLLETGDWSTFEKLMDPHVRVDIGDKHLHGREMSSHFIKELVERYPNLRISFKDMRVQGEFIHVIGEVNFNGQRFHSEWVVLKVDGRWTINSVRIE | 1.28 |
| DEEEEMAHRLVEQHDEFIRTGDERINHELADPHAKVEIGDKEFIGRETFSKLMVEWRTREIRLTHIEVINGQVHLYQDVRVDYNGKEMHQHVRWDSLKINGKWFDHSVHIK | 0.317 |
| NEDEEYVRLAHEILVETLRTGDEHITKRLADPHVRIDVGDKELHGWEDWLELLTHEARHLRTEIRVRNFDSQGDFIRVEVIIIIVVNGKRIEREVHYFSLKVDGRWLLTHVEIK | 0.242 |
| DEDEELMRRVVEIYIRALHTGDEDWMTHLADPHVKVDLLIDGRETELHGREWVVEIARKLGVKHSEVKDVHLVGDYIVIHLHLRIGDKEEEQDLIFLKVDGKWTLESSTIRRI | 1.53 |
| DEERQTLEEWARELLQIHKTGDEERHKEYADPDDLLRIGDKDFHGMEHVLHALVQHWEKMGVKHLEIKRLRVINGVMHVEGVLHVGDKTHDVKLHLFIFNGRIERVEIRIE | 1.33 |
| DEDHQASRLVFELLDRAWKTGDEQILNEMMDPHVKVVFNGVELHGRSALERLMKELRIDTLHLDHTEIYDGRMETEGKVDGEYNGRTLHHITKIRFEKIDGRWVEREVVIK | 0.815 |
| DELHEEYRKIYNIFRHLFETGDWDTWRKLADPHARFEYGEKVSHGREVASETIDWLLEHLRLEHFKLDHFTVQGNFFISDGTEHISYGDKTHTVKTRIILVRVNGVFHLVRIEFV | 1.43 |
| SEDDESLKRHIDLLLRVLETGNEEDLFRMIDPDAKMDWNGVDNHGMELIHKVWHELGLSNVRSHTEDFRVVGDKAEIHIRVEFNGRHHRVEIHTLKINGRWRVRRFHIR | 2.4 |
| SEDDHMAELASRLVHERVKTGDPRVVDELLDPNVRLEYGDKEWHGREEFRKFLRHLRLHDVHIRSYEIQGDKVYIDGRVDGEVNGKRSLLETHIYAKKIDGRWLETSVVMK | 0.561 |
| DHVEEEAEEFVRNFIHNMRTGNWKYMEELLDPNVRLRYGDKDHHGREEMVKWIEEAFKKFKNLTIEIKHINIIGDKLIFDLHVEFNGKHHQLHLIVTKIDGKWISKSIHVD | 1.47 |
| SDSDHDLEHLLELLMRAYETGNEEEIRRLVDPNARWDINGVELHGWKVMHKFLREMRPTRIRIIIDDSETIGDKMFVDGTIRLDVHIGDKLIHTERRSRLVHRKVDGKWTQTSVIID | 0.68 |
| DDWLEDTKRLLEEFRQAINTGDEELLKILFDPHVRMNIDGVELHGRSVLEHFLERYDVIKVRRHHITDLKFQGNYLIIHLKTDIQIDIGDKHYKEEREVEMVVEKVNGRWIIRLMTER | 1.4 |
| DEDEEQAERAIRIYTEVLNTGNEEESERMADPHVRIIVNGVILHGREMFYQYVHEWRVDIRVILRHVKVFEGWVDVEGEFNSHLEVNGRHENNRSKVRLHILKVNGVWLIHEVRVH | 1.5 |
| DREEHELLHAIERWLKAEETGDEHELKKLADPHTRTHIRIGDKHIERHGREDMIKVFRELGFKHHHMRSIEIQGDYVHVRGENRFDGQHITLILIFHKFDGRWILREVEVHIR | 1.41 |
| DEMKEEQRKFSELAIHNFETGDEDTFHRLADPHTKVEINGVLHIGRETVTTFFSHYWELFGVDHFEEKDRKIEIQGEKVITRIRGIIHFNGRQTDVLIRLEIRKINGRWILHSFTIEHI | 0.579 |
| DDETHEYEEAMELWVKALTTGNEDLLKDLHDPHTLTRINGRTEHGRHTWVEIRRKLGVKHLHIETSRLIDGRVHLHARIHVGDKNLEIIVIIVKVNGRWLTSEINIH | 0.951 |
| EEEERVAVEFFRTLQESIRTGDEKTVKELADPNTRLDVGDKHFHGMEEIRKYWLRFDHFERHTLREEDFDVVNGVMSVHGRLEVHGRYNGQRVHTHYHMVIFVLKVNGRWKITEIKLH | 1 |
| DHEHRFMEETLERLLHVWRTGDESLIHELADPEARSDVNGREHHGRERFVDTVRHLGVKHVELKDWTIQGEKVHLSTEVDVGDKTFDFEIIIYKINGKWLIHEMRVK | 0.945 |
| DDMQEIVLRIAEELIHRETTGDEEFIKRLLDPRVRLEINGVDSIGMEEFWRFLFEEEHKLGVDHVRFDIKHIRVVDGRAHSIGILNLNINGKEHRFDVRIDIVVIDGRVREVRIEIR | 2.51 |
| SEETEYLRLAIELILNETRTGDEHTFMENADPDAKLNFNGVHLHGMEEVTRRMHELWEELRIRHFELHDVSHVDGRLYVHIRLDVDVNGQKRTFRSEIVSEKINGKWYYKYMTIV | 1.27 |
| DEVERDSELALREFYHAFRTGDEHTLVDLADPRTLTIWNGVELHGREEMKRLWHKVKNITVHDHHIDHERLIGNFVYMDVTIDGTFNGRRYRVRSHMVILKINGKWLYEKQHYE | 1.16 |

Reference: the NTF2 design screens of Basanta et al. (2020)
